Laboratory results taken from patent publication US20110318339A1 (FABRUS, published 2011).

Legend:
[1] = biological target: T1, rHuman ErbB2/Fc Chimera, CF (Cat# 1129-ER) (human, UniProt P04626 23-652); assay: Multispot ECL; Fab 14.5 nM
T1 construct: Bought from R&D Systems; also called human epidermal growth factor 2 receptor (ErbB2)
Protocol: (§1) An 150 μl aliquot of 1% Bovine Serum Albumin (BSA) in Tris-buffered Saline Tween (TBST) was added to each well and allowed to incubate for 30 min at 20° C. followed by washing and tap drying to completely remove any residual solution. Subsequently, a 12.5 μl aliquot of 1% BSA TBST was added to each well followed by the addition of a 12.5 μl aliquot of a purified Fab. The plate was sealed and incubated for 1 hour at 20° C. with shaking.
(§2) Detection antibodies were prepared by individually conjugating both goat anti-human Kappa light chain polyclonal antibody (K3502-1MG, Sigma-Aldrich) and goat anti-human Lambda light chain polyclonal antibody (L1645-1 mL, Sigma-Aldrich) with Ruthenium (II) tris-bipyridine-(4-methylsulfone)-N-hydroxysuccinimide (SULFO-TAG NHS-ester, Meso Scale Discovery) according to the manufacturer's instructions. TAG-detection antibody at 25 μl was added to each well and allowed to incubate for 1 hour at 20° C. with shaking. Finally, 15 μl of Read Buffer P with Surfactant (Cat # R92PC-1, Meso Scale Discovery) was added to each well. The electrochemiluminescence was measured using a Sector Imager 2400 (Meso Scale Discovery). Data was analyzed by comparing the ECL signals for an antigen to the blank of each well. A signal to blank ratio of 4 or more was considered a “Hit” Fab.
(§3) To confirm a “Hit” from the initial Multispot ECL screening, a Fab concentration dependent titration was carried out to determine the Fab-antigen binding affinity.

[2] = biological target: T2, rHuman CD44/Fc Chimera, CF (Cat# 3660-CD) (human, UniProt P16070 21-220); assay: Multispot ECL; Fab 14.5 nM
T2 construct: Bought from R&D Systems
Protocol: as §1, §2, §3

[3] = biological target: T3, rHuman Notch-1/Fc Chimera, CF (Cat# 3647-TK) (human, UniProt P46531 19-526); assay: Multispot ECL; Fab 14.5 nM
T3 construct: Bought from R&D Systems
Protocol: as §1, §2, §3

[4] = biological target: T4, Recombinant Human DLL4 (Cat# 1506-D4/CF) (human, UniProt Q9NR61 27-529); assay: Multispot ECL; Fab 14.5 nM
T4 construct: Bought from R&D Systems; also called rHuman DLL4; hDLL4
Protocol: as §1, §2, §3

[5] = biological target: T5, rHuman IGF-1 sR, (IGF-1 sR), CF (Cat# 391-GR) (human, UniProt P08069 31-932); assay: Multispot ECL; Fab 14.5 nM
T5 construct: Bought from R&D Systems; also called insulin-like growth factor-1 soluble receptor
Protocol: as §1, §2, §3

[6] = biological target: T6, rHuman Erythropoietin R/Fc Chimera, CF (Cat# 963-ER) (human, UniProt P19235 25-250); assay: Multispot ECL; Fab 14.5 nM
T6 construct: Bought from R&D Systems; also called EPO R/Fc; Epo R/Fc chimera
T6 sequence (looked up): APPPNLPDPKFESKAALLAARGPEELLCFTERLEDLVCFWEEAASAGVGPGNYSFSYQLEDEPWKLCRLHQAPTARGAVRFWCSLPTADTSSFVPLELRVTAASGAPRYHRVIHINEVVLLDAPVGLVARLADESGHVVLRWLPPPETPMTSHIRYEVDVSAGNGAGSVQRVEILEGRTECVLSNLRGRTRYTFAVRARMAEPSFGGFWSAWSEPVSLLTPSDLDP
Protocol: as §1, §2, §3

[7] = biological target: T1, rHuman ErbB2/Fc Chimera, CF (Cat# …); assay: Multispot ECL; Fab 930 nM
Protocol: as §1, §2, §3

[8] = biological target: T2, rHuman CD44/Fc Chimera, CF (Cat# …); assay: Multispot ECL; Fab 930 nM
Protocol: as §1, §2, §3

[9] = biological target: T3, rHuman Notch-1/Fc Chimera, CF (Cat# …); assay: Multispot ECL; Fab 930 nM
Protocol: as §1, §2, §3

[10] = biological target: T4, Recombinant Human DLL4 (Cat# 1506-D4/CF); assay: Multispot ECL; Fab 930 nM
Protocol: as §1, §2, §3

[11] = biological target: T5, rHuman IGF-1 sR, (IGF-1 sR), CF (Cat# …); assay: Multispot ECL; Fab 930 nM
Protocol: as §1, §2, §3

[12] = biological target: T6, rHuman Erythropoietin R/Fc Chimera, CF …; assay: Multispot ECL; Fab 930 nM
Protocol: as §1, §2, §3

[13] = biological target: T1, rHuman ErbB2/Fc Chimera, CF (Cat# …); assay: Multispot ECL; Fab 232.5 nM
Protocol: as §1, §2, §3

[14] = biological target: T2, rHuman CD44/Fc Chimera, CF (Cat# …); assay: Multispot ECL; Fab 232.5 nM
Protocol: as §1, §2, §3

[15] = biological target: T3, rHuman Notch-1/Fc Chimera, CF (Cat# …); assay: Multispot ECL; Fab 232.5 nM
Protocol: as §1, §2, §3

[16] = biological target: T4, Recombinant Human DLL4 (Cat# 1506-D4/CF); assay: Multispot ECL; Fab 232.5 nM
Protocol: as §1, §2, §3

[17] = biological target: T5, rHuman IGF-1 sR, (IGF-1 sR), CF (Cat# …); assay: Multispot ECL; Fab 232.5 nM
Protocol: as §1, §2, §3

[18] = biological target: T6, rHuman Erythropoietin R/Fc Chimera, CF …; assay: Multispot ECL; Fab 232.5 nM
Protocol: as §1, §2, §3

[19] = biological target: T1, rHuman ErbB2/Fc Chimera, CF (Cat# …); assay: Multispot ECL; Fab 58.1 nM
Protocol: as §1, §2, §3

[20] = biological target: T2, rHuman CD44/Fc Chimera, CF (Cat# …); assay: Multispot ECL; Fab 58.1 nM
Protocol: as §1, §2, §3

[21] = biological target: T3, rHuman Notch-1/Fc Chimera, CF (Cat# …); assay: Multispot ECL; Fab 58.1 nM
Protocol: as §1, §2, §3

[22] = biological target: T4, Recombinant Human DLL4 (Cat# 1506-D4/CF); assay: Multispot ECL; Fab 58.1 nM
Protocol: as §1, §2, §3

[23] = biological target: T5, rHuman IGF-1 sR, (IGF-1 sR), CF (Cat# …); assay: Multispot ECL; Fab 58.1 nM
Protocol: as §1, §2, §3

[24] = biological target: T6, rHuman Erythropoietin R/Fc Chimera, CF …; assay: Multispot ECL; Fab 58.1 nM
Protocol: as §1, §2, §3

B1: Fab VH1-46_IGHD6-13*01_IGHJ4*01 & O1_IGKJ1*01 (Fab, V domains shown)
VH: QVQLVQSGAEVKKPGASVKVSCKASGYTFTSYYMHWVRQAPGQGLEWMGIINPSGGSTSYAQKFQGRVTMTRDTSTSTVYMELSSLRSEDTAVYYCAREGYSSSWYDYFDYWGQGTLVTVSS
VL: DIVMTQTPLSLPVTPGEPASISCRSSQSLLDSDDGNTYLDWYLQKPGQSPQLLIYTLSYRASGVPDRFSGSGSGTDFTLKISRVEAEDVGVYYCMQRIEFPSWTFGQGTKVEIKR
notes: Germline-derived Fab from E. coli: VH in Plasmid A (CH1, His6 and Flag tags), VL in Plasmid C (kappa CL)
Question: For B1, which ECL signal [1] is on record?
Answer: Its ECL signal is 274.

Question: And the ECL signal [2]?
Answer: Its ECL signal is 212.

Question: And the ECL signal [3]?
Answer: The ECL signal was 317.

Question: And the ECL signal [4]?
Answer: Its ECL signal is 1150.

Question: What about the ECL signal [5] of the same binder?
Answer: The ECL signal was 234.

Question: What about the ECL signal [6] of the same binder?
Answer: Its ECL signal is 660.

Question: What about the ECL signal [7] of the same binder?
Answer: Its ECL signal is 2220.

Question: What about the ECL signal [8] of the same binder?
Answer: The ECL signal was 1920.

Question: And the ECL signal [9]?
Answer: The ECL signal was 2210.

Question: And the ECL signal [10]?
Answer: Its ECL signal is 8160.

Question: What about the ECL signal [11] of the same binder?
Answer: The ECL signal was 1920.

Question: What about the ECL signal [12] of the same binder?
Answer: The ECL signal was 3010.

Question: What about the ECL signal [13] of the same binder?
Answer: The ECL signal was 779.

Question: And the ECL signal [14]?
Answer: Its ECL signal is 607.

Question: And the ECL signal [15]?
Answer: The ECL signal was 778.

Question: What about the ECL signal [16] of the same binder?
Answer: The ECL signal was 3590.

Question: And the ECL signal [17]?
Answer: Its ECL signal is 569.

Question: What about the ECL signal [18] of the same binder?
Answer: The ECL signal was 1470.

Question: What about the ECL signal [19] of the same binder?
Answer: The ECL signal was 322.

Question: And the ECL signal [20]?
Answer: The ECL signal was 375.

Question: What about the ECL signal [21] of the same binder?
Answer: Its ECL signal is 388.

Question: And the ECL signal [22]?
Answer: The ECL signal was 1880.

Question: What about the ECL signal [23] of the same binder?
Answer: The ECL signal was 343.

Question: And the ECL signal [24]?
Answer: The ECL signal was 829.
